In paper PMC8241838 one finds ratio to parent and response (arbitrary units/cell) data, which are given here for three substances.

This assay concerns the target trimeric fusion protein PA-sfGFP-tLM511, O15230;P07942;P11047. Briefly: flow cytometry on cells. To be noted: 0.5 mM Mn2+; for response (arbitrary units/cell): 30 nM sfGFP-tLM511, parent: est. 3.0, read off a plot. (Flow cytometry measures light scatter and fluorescence of single cells or particles in a stream.)

With “human α6β1 integrin transiently expressed on Expi293F cells, wild type (from UniProt P05556) α6:E219A”, the ratio to parent worked out at 10.7.
Regarding “human α6β1 integrin transiently expressed on Expi293F cells, wild type (from UniProt P05556) α6:D205A”, the response (arbitrary units/cell) worked out at 1.4 and the ratio to parent worked out at 4.8.
On the same counts, the results for “human α6β1 integrin transiently expressed on Expi293F cells, wild type (from UniProt P05556) α6:E221A” are 2.1 and 2.6.
